{
  "source": "patent US20250340661A1",
  "about": "(JIANGSU HENGRUI PHARMACEUTICALS, published 2025)",
  "binders": {"B1": {"name": "humanized anti-CD40 antibody 2F12-L4H2 (antibody, human IgG1, kappa, N297A)", "heavy": "not shown", "light": "AFQLTQSPSSLSASVGDRVTITCQASQSISTGLAWYQQKPGKPPKLLIVGASNLASGVPSRFSGSGSGTDFTLTISSLQPEDFATYYCQSYFSSSSTVFGGGTKVEIKRTVAAPSVFIFPPSDEQLKSGTASVVCLLNNFYPREAKVQWKVDNALQSGNSQESVTEQDSKDSTYSLSSTLTLSKADYEKHKVYACEVTHQGLSSPVTKSFNRGEC", "notes": "human IgG1 N297A (Eu) heavy chain, human kappa light chain; 2F12-L4 light chain and 2F12-H2 heavy chain"}, "B2": {"name": "humanized anti-CD40 antibody 2F12-L4H2-AAYTE (antibody, human IgG1, kappa, L234A L235A)", "heavy": "EVTVKESGPVLVKPTETLTLTCTVSGFSLSSYGVSWIRQPPGKALEWLGGIGSDGSAYYASWAKSRLTISRDTNLKQVVLTMTNMDPVDTATYYCARGGITVYAMWGQGTLVTVSSASTKGPSVFPLAPSSKSTSGGTAALGCLVKDYFPEPVTVSWNSGALTSGVHTFPAVLQSSGLYSLSSVVTVPSSSLGTQTYICNVNHKPSNTKVDKKVEPKSCDKTHTCPPCPAPEAAGGPSVFLFPPKPKDTLYITREPEVTCVVVDVSHEDPEVKFNWYVDGVEVHNAKTKPREEQYNSTYRVVSVLTVLHQDWLNGKEYKCKVSNKALPAPIEKTISKAKGQPREPQVYTLPPSREEMTKNQVSLTCLVKGFYPSDIAVEWESNGQPENNYKTTPPVLDSDGSFFLYSKLTVDKSRWQQGNVFSCSVMHEALHNHYTQKSLSLSPGK", "light": "B1 light", "notes": "light chain unchanged from 2F12-L4H2"}, "B3": {"name": "humanized anti-CD40 antibody 9E6-L4H2 (antibody, human IgG1, kappa, N297A)", "heavy": "not shown", "light": "DIQLTQSPSFLSASVGDRVTITCQASEDISSNLAWYQQKPGKPPKLLIFPASNLASGVPSRFSGSGSGTEFTLTISSLQPEDFATYYCQGGYWTSTSNFGQGFGGGTKVEIKRTVAAPSVFIFPPSDEQLKSGTASVVCLLNNFYPREAKVQWKVDNALQSGNSQESVTEQDSKDSTYSLSSTLTLSKADYEKHKVYACEVTHQGLSSPVTKSFNRGEC", "notes": "human IgG1 N297A (Eu) heavy chain, human kappa light chain; 9E6-L4 light chain and 9E6-H2 heavy chain"}, "B4": {"name": "humanized anti-CD40 antibody 9E6-L4H2-AAYTE (antibody, human IgG1, kappa, L234A L235A)", "heavy": "QVQVQESGPGLVKPSDTLSLTCTVSGFSLSSYDMSWIRQPPGKGLEWIGAIGGAGGTYYASWAKSRVTISVDTSLNQVSLKLSSVTAADTAVYYCARGWTRLDLWGQGTLVTVSSASTKGPSVFPLAPSSKSTSGGTAALGCLVKDYFPEPVTVSWNSGALTSGVHTFPAVLQSSGLYSLSSVVTVPSSSLGTQTYICNVNHKPSNTKVDKKVEPKSCDKTHTCPPCPAPEAAGGPSVFLFPPKPKDTLYITREPEVTCVVVDVSHEDPEVKFNWYVDGVEVHNAKTKPREEQYNSTYRVVSVLTVLHQDWLNGKEYKCKVSNKALPAPIEKTISKAKGQPREPQVYTLPPSREEMTKNQVSLTCLVKGFYPSDIAVEWESNGQPENNYKTTPPVLDSDGSFFLYSKLTVDKSRWQQGNVFSCSVMHEALHNHYTQKSLSLSPGK", "light": "B3 light", "notes": "light chain unchanged from 9E6-L4H2"}},
  "key": {"[1]": {"target": "T1, human CD40 on the cell surface (human, UniProt P25942 21-277)", "T1 sequence (P25942 21-277)": "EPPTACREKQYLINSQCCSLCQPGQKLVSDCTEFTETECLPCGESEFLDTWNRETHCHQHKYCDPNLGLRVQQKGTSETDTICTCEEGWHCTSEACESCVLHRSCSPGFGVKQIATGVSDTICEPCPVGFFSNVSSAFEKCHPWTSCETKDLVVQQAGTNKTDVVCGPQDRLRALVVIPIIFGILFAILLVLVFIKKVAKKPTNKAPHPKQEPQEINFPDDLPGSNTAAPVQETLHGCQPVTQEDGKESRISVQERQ", "experiment": "cell-based or functional assay"}, "[2]": {"target": "T1, human CD40 on the cell surface", "experiment": "flow cytometry on Raji cells, Alexa Fluor 488 anti-human IgG (H+L) detection", "procedure": "Raji cells were plated at 1.5E5/well, and various concentrations of CD40 antagonistic antibodies were added. The plate was incubated at 4° C. for 1 h. After two washes with FACS buffer (PBS+2% FBS), a secondary antibody (Alexa Flour488 conjugated anti-human IgG (H+L) antibody) was added, and the plate was incubated at 4° C. for 0.5 h.\nAfter two washes with FACS buffer, the fluorescence intensity on the cell surface was measured by flow cytometry (BD FACS Celesta)."}, "human FcRn antigen": {"target": "human FcRn antigen (human, UniProt P55899 24-297; P61769 21-119)", "sequence (P55899 24-297 limits assumed, chain 1 of 2)": "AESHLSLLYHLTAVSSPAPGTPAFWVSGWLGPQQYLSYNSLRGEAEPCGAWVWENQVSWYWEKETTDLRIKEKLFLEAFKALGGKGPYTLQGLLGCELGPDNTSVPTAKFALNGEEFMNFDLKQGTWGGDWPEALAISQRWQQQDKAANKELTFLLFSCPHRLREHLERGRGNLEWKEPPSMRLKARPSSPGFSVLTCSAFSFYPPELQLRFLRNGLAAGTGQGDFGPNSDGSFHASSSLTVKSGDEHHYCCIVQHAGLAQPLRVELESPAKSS", "sequence (P61769 21-119 limits assumed, chain 2 of 2)": "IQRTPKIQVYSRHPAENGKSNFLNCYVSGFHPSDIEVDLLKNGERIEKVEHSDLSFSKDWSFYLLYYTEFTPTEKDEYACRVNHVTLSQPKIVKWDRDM", "experiment": "SPR (Biacore), antibody captured on anti-human Fab chip, human FcRn as analyte, steady state model", "procedure": "The test antibody was affinity-captured on an anti-human Fab chip, and a series of concentrations of human FcRn antigen (purchased from AcroBiosystem) were allowed to flow over the chip surface. Reaction signals where the reactions were in a steady state were detected in real time using a Biacore instrument. The buffer used in the experiment was HBS-EP+10× buffer solution (Cat. #BR-1006-69, GE) diluted to 1× (pH 7.4) with D. I. Water. Fitting was performed on the data obtained from the experiment using a steady state binding model to obtain affinity values. The anti-CD40 antibodies carrying the AAYTE mutation have a higher binding affinity for human FcRn than their parent antibodies."}, "[3]": {"target": "T1, human CD40 on the cell surface", "experiment": "cell-based or functional assay", "remark": "listed apart in the source"}, "[4]": {"target": "T2, his-tagged cynomolgus monkey CD40 (cyno-CD40-his) recombinant protein (cynomolgus monkey)", "T2 construct": "Bought from Acrobiosystems, Cat. #CD0-C52H6", "experiment": "SPR (Biacore), antibody captured on anti-human Fc chip, His-tagged CD40 as analyte, 1:1 model", "procedure": "(§1) The test antibody was affinity-captured on an anti-human Fc chip, and a series of concentrations of His-tagged human or cynomolgus monkey CD40 antigen were allowed to flow over the chip surface. Reaction signals were detected in real time using a Biacore instrument, and thus binding and dissociation curves were obtained. The buffer used in the experiment was HBS-EP+10× buffer solution (Cat. #BR-1006-69, GE) diluted to 1× (pH 7.4) with D. I. Water. Fitting was performed on the data obtained from the experiment using a (1:1) Binding model to obtain affinity values. 9E6-L4H2 and 2F12-L4H2 have similar binding constants for human CD40 to CFZ533, 9E6-L4H2 has a stronger binding affinity for cynomolgus monkey CD40, and 2F12-L4H2 has a slightly weak binding affinity for cynomolgus monkey CD40."}, "[5]": {"target": "T3, his-tagged human CD40 (h-CD40-his) recombinant protein (human, UniProt P25942 21-193)", "T3 construct": "Bought from Acrobiosystems, Cat. #CD0-H5228; also called His-tagged human CD40 antigen; not shown: His tag", "T3 sequence (P25942 21-193 limits assumed)": "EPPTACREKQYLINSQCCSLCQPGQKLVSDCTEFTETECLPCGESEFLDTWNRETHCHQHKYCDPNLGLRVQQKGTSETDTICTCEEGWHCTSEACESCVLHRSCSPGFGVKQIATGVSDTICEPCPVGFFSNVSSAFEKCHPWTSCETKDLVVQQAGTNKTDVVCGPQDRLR", "experiment": "SPR (Biacore), antibody captured on anti-human Fc chip, His-tagged CD40 as analyte, 1:1 model", "procedure": "as §1"}, "[6]": {"target": "T1, human CD40 on the cell surface", "experiment": "cell-based or functional assay", "remark": "listed apart in the source"}, "[7]": {"target": "T1, human CD40 on the cell surface", "experiment": "cell-based or functional assay", "remark": "listed apart in the source"}, "[8]": {"target": "T1, human CD40 on the cell surface", "experiment": "cell-based or functional assay", "remark": "listed apart in the source"}, "[9]": {"target": "T1, human CD40 on the cell surface", "experiment": "cell-based or functional assay", "remark": "listed apart in the source"}, "[10]": {"target": "T1, human CD40 on the cell surface", "experiment": "cell-based or functional assay", "remark": "listed apart in the source"}, "[11]": {"target": "T1, human CD40 on the cell surface", "experiment": "cell-based or functional assay", "remark": "listed apart in the source"}},
  "note": "Where two headings read alike, the source gives them in different places.",
  "data": [
    {"binder": "B1", "values": [
      {"measurement": "IC50 in DC cell activation assay system, CD80 MFI", "setting": "[1]", "result": 780, "unit": "pM"},
      {"measurement": "IC50 in DC cell activation assay system, CD86 MFI", "setting": "[1]", "result": 520, "unit": "pM"},
      {"measurement": "IC50 in DC cell activation assay system, IL-12/23 p40", "setting": "[1]", "result": 680, "unit": "pM"},
      {"measurement": "IC50 in DC cell activation assay system, TNFα", "setting": "[1]", "result": 300, "unit": "pM"},
      {"measurement": "EC50", "setting": "[2]", "result": 589, "unit": "pM"},
      {"measurement": "Kd", "setting": "human FcRn antigen", "result": 279000, "unit": "pM"},
      {"measurement": "IC50 for the inhibition of CD40 reporter gene cell activity (Assay 1)", "setting": "[3]", "result": 180, "unit": "pM"},
      {"measurement": "Kd", "setting": "[4]", "result": 35300, "unit": "pM"},
      {"measurement": "koff", "setting": "[4]", "result": 0.414, "unit": "s⁻¹"},
      {"measurement": "kon", "setting": "[4]", "result": "1.17e+07", "unit": "M⁻¹ s⁻¹"},
      {"measurement": "Kd", "setting": "[5]", "result": 2710, "unit": "pM"},
      {"measurement": "koff", "setting": "[5]", "result": 0.00206, "unit": "s⁻¹"},
      {"measurement": "kon", "setting": "[5]", "result": 758000, "unit": "M⁻¹ s⁻¹"},
      {"measurement": "IC50 (read off the curve), CD40L-induced IL-12/23 p40 secretion by DC cells", "setting": "[6]", "result": "~700", "unit": "pM"},
      {"measurement": "B cell activation assay, CD19+CD69+ % IC50", "setting": "[7]", "result": 40, "unit": "pM"},
      {"measurement": "B cell activation assay, CD19+CD69+ MFI IC50", "setting": "[7]", "result": 30, "unit": "pM"},
      {"measurement": "IC50 (read off the curve), CD40L-induced TNFα secretion by DC cells", "setting": "[8]", "result": "~400", "unit": "pM"}
    ]},
    {"binder": "B2", "values": [
      {"measurement": "Kd", "setting": "human FcRn antigen", "result": 44200, "unit": "pM"},
      {"measurement": "IC50 (read off the curve), CD40L-induced IL-12/23 p40 secretion by DC cells", "setting": "[6]", "result": "~600", "unit": "pM"},
      {"measurement": "IC50 (read off the curve), CD40L-induced TNFα secretion by DC cells", "setting": "[8]", "result": "~300", "unit": "pM"}
    ]},
    {"binder": "B3", "values": [
      {"measurement": "IC50 (read off the curve), CD40L-induced IL-12/23 p40 secretion by DC cells", "setting": "[9]", "result": "1000 to 2000", "unit": "pM"},
      {"measurement": "IC50 (read off the curve), CD40L-induced TNFα secretion by DC cells", "setting": "[10]", "result": "~700", "unit": "pM"},
      {"measurement": "IC50 in DC cell activation assay system, CD80 MFI", "setting": "[1]", "result": 3440, "unit": "pM"},
      {"measurement": "IC50 in DC cell activation assay system, CD86 MFI", "setting": "[1]", "result": 3720, "unit": "pM"},
      {"measurement": "IC50 in DC cell activation assay system, IL-12/23 p40", "setting": "[1]", "result": 1850, "unit": "pM"},
      {"measurement": "IC50 in DC cell activation assay system, TNFα", "setting": "[1]", "result": 700, "unit": "pM"},
      {"measurement": "IC50 (read off the curve), CD40L-induced B cell activation (CD19+CD69+ MFI)", "setting": "[11]", "result": "~200", "unit": "pM"},
      {"measurement": "EC50", "setting": "[2]", "result": 870, "unit": "pM"},
      {"measurement": "Kd", "setting": "human FcRn antigen", "result": 293000, "unit": "pM"},
      {"measurement": "IC50 for the inhibition of CD40 reporter gene cell activity (Assay 2)", "setting": "[3]", "result": 500, "unit": "pM"},
      {"measurement": "Kd", "setting": "[4]", "result": 121, "unit": "pM"},
      {"measurement": "koff", "setting": "[4]", "result": "6.23e-05", "unit": "s⁻¹"},
      {"measurement": "kon", "setting": "[4]", "result": 514000, "unit": "M⁻¹ s⁻¹"},
      {"measurement": "Kd", "setting": "[5]", "result": 536, "unit": "pM"},
      {"measurement": "koff", "setting": "[5]", "result": 0.000221, "unit": "s⁻¹"},
      {"measurement": "kon", "setting": "[5]", "result": 413000, "unit": "M⁻¹ s⁻¹"},
      {"measurement": "B cell activation assay, CD19+CD69+ % IC50", "setting": "[7]", "result": 140, "unit": "pM"},
      {"measurement": "B cell activation assay, CD19+CD69+ MFI IC50", "setting": "[7]", "result": 70, "unit": "pM"}
    ]},
    {"binder": "B4", "values": [
      {"measurement": "IC50 (read off the curve), CD40L-induced IL-12/23 p40 secretion by DC cells", "setting": "[9]", "result": "~1000", "unit": "pM"},
      {"measurement": "IC50 (read off the curve), CD40L-induced TNFα secretion by DC cells", "setting": "[10]", "result": "~500", "unit": "pM"},
      {"measurement": "IC50 (read off the curve), CD40L-induced B cell activation (CD19+CD69+ MFI)", "setting": "[11]", "result": "~200", "unit": "pM"},
      {"measurement": "Kd", "setting": "human FcRn antigen", "result": 39800, "unit": "pM"}
    ]}
  ]
}
